Experiment: label from the status in PepcDB records

| Sequence | protein production |
| --- | --- |
| SDILLVHGSGYGGWCWDATIRALAAHGARARALDLPGRIFTPGLSLADHAAAILQEIRAPVTLVGHSAGGFSIAAAAEAAAPGLIERLIFLCAYAPRDGASVASMRRAQARQPLRPAIRLAPDRLSYSFDPDLAGEALFHDCPPEVRAAALARMGAEPVGPQEERIRLSARYHALPKHYIRCLEDRAIPPETQEAMTADWPAGSVSTLPAGHSPFLSCPEALAKRLISVAAN | failed |
| SDPEISEQDEEKKKYTSVCVGREEDIRKSERMTAVVHDREVVIFYHKGEYHAMDIRCYHSGGPLHLGEIEDFNGQSCIVCPWHKYKITLATGEGLYQSINPKDPSAKPKWCSKGVKQRIHTVKVDNGNIYVTLSKEPFKCDSDYYATGEFKVIQSSS | failed |
| SEAGGLPLELWRMILAYLHLPDLGRCSLVCRAWYELILSLDSTRWRQLCLGCTECRHPNWPNQPDVEPESWREAFKQHYLASKTWTKNALDLESSICFSLFRRRRERRTLSVGPGREFDSLGSALAMASLYDRIVLFPGVYEEQGEIILKVPVEIVGQGKLGEVALLASIDQHCSTTRLCNLVFTPAWFSPIMYKTTSGHVQFDNCNFENGHIQVHGPGTCQVKFCTFKNTHIFLHNVPLCVLENCEFVGSENNSVTVEGHPSADKNWAYKYLLGLIKSSPTFLPTEDSD | not failed |
| SEAKVTRSCAETRQVLGARGYSLNLIPPALISGEHLRVCPQEYTCCSSETEQRLIRETEATFRGLVEDSGSFLVHTLAARHRKFDEFFLEMLSVAQHSLTQLFSHSYGRLYAQHALIFNGLFSRLRDFYGESGEGLDDTLADFWAQLLERVFPLLHPQYSFPPDYLLCLSRLASSTDGSLQPFGDSPRRLRLQITRTLVAARAFVQGLETGRNVVSEALKVPVSEGCSQALMRLIGCPLCRGVPSLMPCQGFCLNVVRGCLSSRGLEPDWGNYLDGLLILADKLQGPFSFELTAESIGVKISEGLMYLQENSAKVSAQVFQECGPPDPVPARNRRAPPPREEAGRLWSMVTEEERPTTAAGTNLHRLVWELRERLARMRGFWARLSLTVCGDSRMAADASLEAAPCWTGAGRGRYLPPVVGGSPAEQVNNPELKVDASGPDVPTRRRRLQLRAATARMKTAALGHDLDGQDADEDASGSGGGQQYADDWMAGAVAPPARPPRPPYPPRRDGSGGKGGGGSARYNQGRSRSGGASIGFHTQTILILSLSALALLGPR | failed |
| SEDTMDRINKDHDHTTSVASRFILADVITSTAFSNASGDINTYASSYIEYEVGVDNQLYYAEVRENEPSSSSTFNNSWNGIYSSLKNARIIIDQCGEGGRDHGNDVTRGMAEVMAAYNCALIADFFGDAPCSQAALVDEKGSPVYMTPKMDTQQEIYTQIISYLDDAIANLQKEDLADVTEQDFLYAGDADKWLKFAYGLKARYTMRLINRSSNKSADYEKVLDYVSKSFTSADDQAAFDIYDSNNINPFYGFYNSRAGFGASTSLGTKLLAYNDPRANRAFFTPIVDKKRSQVAANDPSLVPAPNGSPDQSTSKYGISAFVYAKTAPTLLMSYHELMFLKAEALCRLNRDAEDALKEAVVAGLLNAENSISIAIKELGSGLNTNSSEVITETSAGKYFDDVVKAKYAANPLQETMIQKYLAMWGASGEATETYNDFRRMKGLNENFITLTNPNNSSKFPLRYPYGNSDTAANPEVKAAYGNGDYVYSEPVWWAGGSR | not failed |
| SEKPAGSLQEQALKRKERLKALRDRQLQGHAPADGEPERKRALEDTETEDRHRELKLRNYTPEDVELKERQVPKAKPASVDDKVKDQLEAANPEPVIEEVDLANLAPRKPDWDLKRDVAKKLEKLERRTQKAIAELIRERLKGSEEELAGAVGAVGVEEGDSD | failed |
| SERNDIINFKALEKELQAALTADEKYKRENAAKLRAVEQRVASYEEFRGIVLASHLKPLERKDKMGGKRTVPWNCHTIQGRTFQDVATEISPEKAPLQPETSADFYRDWRRHLPSGPERYQALLQLGGPRLGCLFQTDVGFGLLGELLVALADHVGPADRAAVLGILCSLASTGRFTLNLSLLSRAERESCKGLFQKLQAMGNPRSVKEGLSWEEQGLEEQSGGLQEEERLLQELLELYQVD | not failed |
| SERRLGVRAWVKENRGSFQPPVCNKLMHQEQLKVMFIGGPNTRKDYHIEEGEEVFYQLEGDMVLRVLEQGKHRDVVIRQGEIFLLPARVPHSPQRFANTVGLVVERRRLETELDGLRYYVGDTMDVLFEKWFYCKDLGTQLAPIIQEFFSSEQYRTGKPIPDQLLKEPPFPLSTRSIMEPMSLDAWLDSHHRELQAGTPLSLFGDTYETQVIAYGQGSSEGLRQNVDVWLWQLEGSSVVTMGGRRLSLAPDDSLLVLAGTSYAWERTQGSVALSVTQDPACKKPLG | not failed |
| SEVRWCATSDPEQHKCGNMSEAFREAGIQPSLLCVRGTSADHCVQLIAAQEADAITLDGGAIYEAGKEHGLKPVVGEVYDQEVGTSYYAVAVVRRSSHVTIDTLKGVKSCHTGINRTVGWNVPVGYLVESGRLSVMGCDVLKAVSDYFGGSCVPGAGETSYSESLCRLCRGDSSGEGVCDKSPLERYYDYSGAFRCLAEGAGDVAFVKHSTVLENTDGKTLPSWGQALLSQDFELLCRDGSRADVTEWRQCHLARVPAHAVVVRADTDGGLIFRLLNEGQRLFSHEGSSFQMFSSEAYGQKDLLFKDSTSELVPIATQTYEAWLGHEYLHAMKGLLCDPNRLPPYLRWCVLSTPEIQKCGDMAVAFRRQRLKPEIQCVSAKSPQHCMERIQAEQVDAVTLSGEDIYTAGKKYGLVPAAGEHYAPEDSSNSYYVVAVVRRDSSHAFTLDELRGKRSCHAGFGSPAGWDVPVGALIQRGFIRPKDCDVLTAVSEFFNASCVPVNNPKNYPSSLCALCVGDEQGRNKCVGNSQERYYGYRGAFRCLVENAGDVAFVRHTTVFDNTNGHNSEPWAAELRSEDYELLCPNGARAEVSQFAACNLAQIPPHAVMVRPDTNIFTVYGLLDKAQDLFGDDHNKNGFKMFDSSNYHGQDLLFKDATVRAVPVGEKTTYRGWLGLDYVAALEGMSSQQC | not failed |
| SGGGGKAWPTHVVCSDSGLEVLYQSCDPLQDFGFSVEKCSKQLKSNINIRFGIILREDIKELFLDLALMSQGSSVLNFSYPICEAALPKFSFCGRRKGEQIYYAGPVNNPEFTIPQGEYQVLLELYTEKRSTVACANATIMCS | failed |
| SGHFSALPSLPVGSHAKVSSPQPRGPRYAEGTFISDYSIAMDKIHQQDFVNWLLAQKGKKNDWKHNITQREARALELASQANRKEEEAVEPQSSPAKNPSDEDLLRDLLIQELLACLLDQTNLCRLRSR | failed |
| SGNTTSERVSGERHGAKAARAEGGGHGPGKEHKIMVGSTDDPSVFSLPDSKLPGDKEFVPWQQDLDDSVKPTQQARPTVIRWSEGGKEVFISGSFNNWSTKIPLIKSHNDFVAILDLPEGEHQYKFFVDGQWVHDPSEPVVTSQLGTINNLIHVKKSDFEVFDALKLDSMESSETSCRV | failed |
| SGRKRLITDSYPVVKRREGPAGHSKGELAPELGEEPQPRDEEEAELELLRQFDLAWQYGPCTGITRLQRWCRAKHMGLEPPPEVWQVLKTHPGDPRFQCSLWHLYPL | failed |
| SGSEPTKVMVAVNASTIKDYPNPSISCKRAFEWTLEKIVRSNTSDFKILLLHVQVVDEDGFDDVDSIYASPEDFRDMRQSNKAKGLHLLEFFVNKCHEIGVGCEAWIKTGDPKDVICQEVKRVRPDFLVVGSRGLGRFQKVFVGTVSAFCVKHAECPVMTIKRNADETPSDPADD | not failed |
| SIDLRLQYLATRELRNAIAEQDAKAGSLVIMDVKTGEVLAMVNQPTYNPNNRRSMFPAAMRNRAIIDVFEPGSTVKPISMSAALQSGRWKPTDKVEVYPGSLQIGRYTIKDVSRSEGPILDLTGILINSSNVGMSKIAFDIGGEAIYRVMSQVGLGQYTGLGFPGERVGNLPNHREWRKAETATLSYGYGVSVTALQLVHAYAALANDGKMVPLSIIKVDKTPEAVQAIPKEVAETVQGMLQQVIEAPRGVFRAQVPFYHVAGKSGTARKATVGAKGYTENAYRSLFAGFGPMSDPRYAIVVVIDEPRKGGYFGGLVSAPVFSNVMSGTLRLMNVPPDNLPPPAPAPAVPSQVNAAAAKGGRG | failed |
| SIKENSYFAGGVKSLGFNQHGQDVSVGVMLPGEYTFGTQAPERMTVVKGALVVKRVGEADWTTYSSGESFDVEGNSSFELQVKDATAYLCEYL | not failed |
| SILKIEKVLKRMREIKNELLQAQNPSELYLSSKTELQGLIGQLDEVSLEKNPCIREARRRAVIEVQTLITYIDLKE | not failed |
| SIVIIFNPNSTGDAPELAQQLHGKLKELLTYQPEITLQPTEHAGHAVDLAREAASKGGDVLVVSVSGDGGYNEVVNGVMQADNPRAVAAVLAAGNANDHSRIIGTKPLEEAIAEGRVHNIDLLRIHTG | failed |
| SKAWLHQYSVVGRKIPTQEEPEPPIYRLKIFAPNVVNAKSRFWYFLRKLKRVKKSSGEILNISEIFEKKSTQVKNYGIWIRYKSRSDTINMYREYRDVTVNGAVEQMYKDMSGRHRARWSSIWVLKAMPVAAKDCRRSKVTQFHDSKIKFALPHMRPRAPLKKYNTPFKAKRPTTIVQ | not failed |
| SKELKVLVLCAGSGTSAQLANAINEGANLTEVRVIANSGAYGAHYDIMGVYDLIILAPQVRSYYREMKVDAERLGIQIVATRGMEYIHLTKSPSKALQFVLEHYQ | not failed |
| SKKVIGKKRAHAEDDELDPMDPSSYSDAPRGGWVVGLKGVQPRAADTTASGPLFQQRPYPSPGAVLRRNAEVASSQKKKPNSQFTEITKRGDGSDGLGDAD | failed |
| SKQKLVLASGSPRRLELLHQIGIEPARLMPMDIDETPVKLEHPRTLCRRLSQQKAEAAQAALKSEQAWKDAYVLGSDTVVAVGRRIVGKAEYTEEASAALHLLSGRSHWVYTGICLVTPDGKIRQKVAETKVRFKRLSTREIDAYIASGQWRGKAGAYGIQGIAGAFVQKLTGSYTNVVGLPLYETMSLLSGEGFEV | failed |
| SKSNKIFVGGIPHNCGETELREYFKKFGVVTEVVMIYDAEKQRPRGFGFITFEDEQSVDQAVNMHFHDIMGKKVEVKRAEPRDSKS | not failed |
| SLDVQRVGKAGLHRVDSKKQQTAAGVSFSEVMGKQRDEKAYERLQALMSKIDDQGKLLSETRTIEELRKYKELVKEFVGDAVELGLRLEERRGFNRRGRTKIYKIVKEVDRKLLDLTDAVLAKEKKGLDILNMVGEIKGLLINIYA | not failed |
| SLENVLASHSKMQGALEKVQIELGRRDSEIAGLKKERDLNQQRVQKLEAEVDQWQARMLVMEDQHNSEIESLQKALGVAREDNRKLAMSLEQALQTNNHLQTKLDHIQEQLESKELERQNLETFKDRMTEESKVEAELHAERIEALRKQFQTERETTKKVAQREVAELKKALDEANFRSVEVSRTNRELRQKLAELEKILESNKEKIKNQKTQIKLHLSAKANNAQNIERMKVVWETSSHFLDTL | not failed |
| SLERSVNGKIQKADIFSVPVSFNASEVKHVDTPQEALAASLNKFGEVNLEYMENLSEIDIQELLKQLDTRIFYNPMMKNYEIKDRFIAGNVVAKAEWIENYLKDYPDDDASRKSLEALRKAIPEPISFELLDFNLGERWIPMSVYEEFAGYLFETKAHIHYTESIDEFSVNFESTNANITDRYYVKGEKRGYYGNDLLKHALHNTVPDITKTVQDEEGNDIKVRDAEAIQLADAKINEIRSAFTGWLNEQLPEFKQNLADMYNRKFNCYVRPDYDGSLQSFPFLDLKGLGIPNLYDSQ | failed |
| SLKLAKNVEIEIRTKIHPTESEDKVLKAIRNIFPDAEIEISEEGEVYGRAYSLDRFRELLRKQRILDTARSEILKGRNGKEVTIYLNKQTATVSRINFCDENAVLSPIKVTFRLNNIPFSRFLDYIAPETKDGRPVKEIDKL | not failed |

Source: a protein production outcome set (Wang et al. 2014)
